T1: Cyno MUC17 ECD3577-mFc (mFc-tagged cynomolgus monkey MUC17 protein extracellular region fusion protein) (cynomolgus monkey)
T1 construct: also called monkey MUC17-mFc protein; Monkey MUC17-ECD3577-mFc protein
T1 chain: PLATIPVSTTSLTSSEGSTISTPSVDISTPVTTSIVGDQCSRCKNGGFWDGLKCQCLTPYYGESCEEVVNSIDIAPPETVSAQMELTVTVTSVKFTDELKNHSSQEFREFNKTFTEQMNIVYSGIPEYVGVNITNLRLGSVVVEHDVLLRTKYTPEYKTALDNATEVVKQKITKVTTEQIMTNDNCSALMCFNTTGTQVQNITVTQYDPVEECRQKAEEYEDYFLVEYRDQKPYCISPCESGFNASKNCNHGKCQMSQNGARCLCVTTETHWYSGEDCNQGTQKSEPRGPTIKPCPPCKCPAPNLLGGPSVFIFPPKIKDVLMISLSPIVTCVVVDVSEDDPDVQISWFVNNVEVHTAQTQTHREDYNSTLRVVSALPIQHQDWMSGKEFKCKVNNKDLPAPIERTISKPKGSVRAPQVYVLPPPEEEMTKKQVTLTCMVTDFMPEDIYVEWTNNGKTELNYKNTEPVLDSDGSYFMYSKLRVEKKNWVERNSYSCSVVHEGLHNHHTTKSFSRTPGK


How the values were obtained:
[1] = biological target: T2, monkey MUC17 on FlpinCHO-cynoMUC17-D1 cells (monkey); assay: FACS on FlpinCHO-cynoMUC17-D1 cells, MFI
T2 construct: On cells; also called recombinant cells overexpressing monkey MUC17

[2] = biological target: T1, Cyno MUC17 ECD3577-mFc (mFc-tagged …); assay: ELISA, cynomolgus MUC17-mFc coated on the plate, OD450
[3] = biological target: T3, human MUC17 on endogenous tumor cells (NUGC4, SNU16, ASPC1) (human); assay: FACS on SNU16 cells (endogenous human MUC17), MFI
T3 construct: whole, on cells; also called MUC17-positive tumor cells

[4] = biological target: T4, Human MUC17 ECD4131-his (His-tagged human MUC17 protein extracellular region fusion protein) (human, UniProt Q685J3 4131-4393); assay: ELISA, human MUC17-his coated on the plate, OD450
T4 construct: also called human MUC17-his protein; Human MUC17-ECD(4131-4393)-His protein

[5] = biological target: T3, human MUC17 on endogenous tumor cells …; assay: cell-based or functional assay
[6] = biological target: T3, human MUC17 on endogenous tumor cells …; assay: FACS on AspC-1 cells (endogenous human MUC17), MFI
[7] = biological target: T5, human MUC17 fragment on FlpinCHO-huMUC17-D1 cells (human); assay: FACS on FlpinCHO-huMUC17-D1 cells, MFI
T5 construct: On cells; also called cells overexpressing human MUC17

[8] = biological target: T3, human MUC17 on endogenous tumor cells …; assay: FACS on NUGC4 cells (endogenous human MUC17), MFI
[9] = biological target: T6, Human CD3e-His protein (Sino Biological, CAT #10977-H08H) (human, UniProt P07766 23-126); assay: ELISA, human CD3e-His coated on the plate, OD450
T6 construct: Bought reagent; also called human CD3e protein
T6 sequence (P07766 23-126 limits assumed): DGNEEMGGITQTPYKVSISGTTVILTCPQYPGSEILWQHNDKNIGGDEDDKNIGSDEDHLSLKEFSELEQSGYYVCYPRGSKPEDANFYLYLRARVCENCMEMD

[10] = biological target: T1, Cyno MUC17 ECD3577-mFc (mFc-tagged …); assay: SPR (Biacore 8K), antibody captured on Protein A, antigen injected, 25 C, 1:1 model
[11] = biological target: T4, Human MUC17 ECD4131-his (His-tagged …); assay: as above

Binder	EC50 (read off the curve) [1] [nM]	EC50 (read off the curve) [2] [nM]	EC50 (read off the curve) [3] [nM]	EC50 (read off the curve) [4] [nM]	EC50 (read off the curve) [6] [nM]	EC50 (read off the curve) [7] [nM]	EC50 (read off the curve) [8] [nM]	binding result [9]	Kd [10] [nM]	koff [10] [s⁻¹]	kon [10] [M⁻¹ s⁻¹]	Kd [11] [nM]	koff [11] [s⁻¹]	kon [11] [M⁻¹ s⁻¹]	binding result [4]	PBMC-mediated in vitro tumor cell killing EC50, ASPC-1 [5] [nM]	PBMC-mediated in vitro tumor cell killing EC50, NUGC4 [5] [nM]	PBMC-mediated in vitro tumor cell killing EC50, SNU16 [5] [nM]
Bis 57 (bispecific antibody, human IgG1, kappa, Three-chain asymmetric MUC17xCD3 bispecific) heavy: EVQLVESGGGVVQPGRSLRLSCAASGFTFTDYYMSWVRQAPGKGLEWVAMSRNKAKGHTIEYSSSVKGRFTISRDNSKNTLYLQMNSLRAEDTAVYYCARDTYESYDGYFDVWGQGTTVTVSSASTKGPSVFPLAPSSKSTSGGTAALGCLVKDYFPEPVTVSWNSGALTSGVHTFPAVLQSSGLYSLSSVVTVPSSSLGTQTYICNVNHKPSNTKVDKKVEPKSCDKTHTCPPCPAPEAAGAPSVFLFPPKPKDTLMISRTPEVTCVVVDVSHEDPEVKFNWYVDGVEVHNAKTKPREEQYNSTYRVVSVLTVLHQDWLNGKEYKCKVSNKALPAPIEKTISKAKGQPREPQVYTLPPSREEMTKNQVSLWCLVKGFYPSDIAVEWESNGQPENNYKTTPPVLDSDGSFFLYSKLTVDKSRWQQGNVFSCSVMHEALHNHYTQKSLSLSPG light: not shown EVQLVESGGGLVQPGRSLRLSCAASGDITRRCMGWFRQAPGKEREGVAGISEDGITIYADSVKGRFTISKDNAKNSLYLQMNSLRAEDTALYSCAASILNRVGCRQLSYEYIYRGQGTMVTVSSGGGDKTHTCPPCPAPEAAGAPSVFLFPPKPKDTLMISRTPEVTCVVVDVSHEDPEVKFNWYVDGVEVHNAKTKPREEQYNSTYRVVSVLTVLHQDWLNGKEYKCKVSNKALPAPIEKTISKAKGQPREPQVYTLPPSREEMTKNQVSLSCAVKGFYPSDIAVEWESNGQPENNYKTTPPVLDSDGSFFLVSKLTVDKSRWQQGNVFSCSVMHEALHNHYTQKSLSLSPG	~8	~0.04	~0.3	~0.05	~0.3	~2	~1	binds	4.71	0.00016	33900	0.289	4.86e-05	168000		0.011	0.024	0.017
Bis 59 (bispecific antibody, human IgG1, kappa, Three-chain asymmetric MUC17xCD3 bispecific) heavy: EVQLVESGGGVVQPGRSLRLSCAASGFTFTDYYMSWVRQAPGKGLEWVAMSRNKAKGHTIEYSSSVKGRFTISRDNSKNTLYLQMNSLRAEDTAVYYCARDTYESYDGYFDVWGQGTTVTVSSASTKGPSVFPLAPSSKSTSGGTAALGCLVKDYFPEPVTVSWNSGALTSGVHTFPAVLQSSGLYSLSSVVTVPSSSLGTQTYICNVNHKPSNTKVDKKVEPKSCDKTHTCPPCPAPEAAGAPSVFLFPPKPKDTLMISRTPEVTCVVVDVSHEDPEVKFNWYVDGVEVHNAKTKPREEQYNSTYRVVSVLTVLHQDWLNGKEYKCKVSNKALPAPIEKTISKAKGQPREPQVYTLPPSREEMTKNQVSLWCLVKGFYPSDIAVEWESNGQPENNYKTTPPVLDSDGSFFLYSKLTVDKSRWQQGNVFSCSVMHEALHNHYTQKSLSLSPG light: not shown EVQLVESGGGVVQPGGSLRLSCAASGDTFSRGSWGWFRQAPGKEREAVALISSDGWTFYADSVKGRFTISQDNSKNTLYLQMNSLRAEDTAVYYCAASVLVLRTLNPKAWHHWGQGTMVTVSSGGGDKTHTCPPCPAPEAAGAPSVFLFPPKPKDTLMISRTPEVTCVVVDVSHEDPEVKFNWYVDGVEVHNAKTKPREEQYNSTYRVVSVLTVLHQDWLNGKEYKCKVSNKALPAPIEKTISKAKGQPREPQVYTLPPSREEMTKNQVSLSCAVKGFYPSDIAVEWESNGQPENNYKTTPPVLDSDGSFFLVSKLTVDKSRWQQGNVFSCSVMHEALHNHYTQKSLSLSPG		~0.2	~0.2	~0.05	~0.2	~1	~0.6	binds	25.6	0.000866	33900	0.219	9.74e-05	445000		0.0073	0.0166	0.0126

Now from value to binder, other results behind:

EC50 (read off the curve) [1] [nM]	EC50 (read off the curve) [2] [nM]	EC50 (read off the curve) [3] [nM]	EC50 (read off the curve) [4] [nM]	EC50 (read off the curve) [6] [nM]	EC50 (read off the curve) [7] [nM]	EC50 (read off the curve) [8] [nM]	binding result [9]	Kd [10] [nM]	koff [10] [s⁻¹]	kon [10] [M⁻¹ s⁻¹]	Kd [11] [nM]	koff [11] [s⁻¹]	kon [11] [M⁻¹ s⁻¹]	binding result [4]	Binder	PBMC-mediated in vitro tumor cell killing EC50, ASPC-1 [5] [nM]	PBMC-mediated in vitro tumor cell killing EC50, NUGC4 [5] [nM]	PBMC-mediated in vitro tumor cell killing EC50, SNU16 [5] [nM]
~20	~0.09	~0.08	~0.05	~0.08	~1	~0.2	binds	13.4	0.000511	38100	0.136	7.81e-05	572000		Bis 92 (bispecific antibody, human IgG1, kappa, Three-chain asymmetric MUC17xCD3 bispecific) heavy: EVQLVESGGGVVQPGRSLRLSCAASGFTFTDYYMSWVRQAPGKGLEWVAMSRNKAKGHTIEYSSSVKGRFTISRDNSKNTLYLQMNSLRAEDTAVYYCARDTYESYDGYFDVWGQGTTVTVSSASTKGPSVFPLAPSSKSTSGGTAALGCLVKDYFPEPVTVSWNSGALTSGVHTFPAVLQSSGLYSLSSVVTVPSSSLGTQTYICNVNHKPSNTKVDKKVEPKSCDKTHTCPPCPAPEAAGAPSVFLFPPKPKDTLMISRTPEVTCVVVDVSHEDPEVKFNWYVDGVEVHNAKTKPREEQYNSTYRVVSVLTVLHQDWLNGKEYKCKVSNKALPAPIEKTISKAKGQPREPQVYTLPPSREEMTKNQVSLWCLVKGFYPSDIAVEWESNGQPENNYKTTPPVLDSDGSFFLYSKLTVDKSRWQQGNVFSCSVMHEALHNHYTQKSLSLSPG light: not shown EVQLVESGGGVVQPGGSLRLSCAASGYTSNRYSMAWFRQAPGKEREVVAFIWTDGGRTYYADSVKGRFTISRDNSKNTLYLQMNSLRAEDTAVYYCAASSLLLQTINPRAWPYWGQGTMVTVSSGGGDKTHTCPPCPAPEAAGAPSVFLFPPKPKDTLMISRTPEVTCVVVDVSHEDPEVKFNWYVDGVEVHNAKTKPREEQYNSTYRVVSVLTVLHQDWLNGKEYKCKVSNKALPAPIEKTISKAKGQPREPQVYTLPPSREEMTKNQVSLSCAVKGFYPSDIAVEWESNGQPENNYKTTPPVLDSDGSFFLVSKLTVDKSRWQQGNVFSCSVMHEALHNHYTQKSLSLSPG	0.00739	0.00779	
							binds							no binding	antiFITCx CD3 negative control (bispecific antibody, human IgG1, kappa, Negative control with the same anti-CD3 arm and an anti-FITC scFv in place of the MUC17 VHH) heavy: EVQLVESGGGVVQPGRSLRLSCAASGFTFTDYYMSWVRQAPGKGLEWVAMSRNKAKGHTIEYSSSVKGRFTISRDNSKNTLYLQMNSLRAEDTAVYYCARDTYESYDGYFDVWGQGTTVTVSSASTKGPSVFPLAPSSKSTSGGTAALGCLVKDYFPEPVTVSWNSGALTSGVHTFPAVLQSSGLYSLSSVVTVPSSSLGTQTYICNVNHKPSNTKVDKKVEPKSCDKTHTCPPCPAPEAAGAPSVFLFPPKPKDTLMISRTPEVTCVVVDVSHEDPEVKFNWYVDGVEVHNAKTKPREEQYNSTYRVVSVLTVLHQDWLNGKEYKCKVSNKALPAPIEKTISKAKGQPREPQVYTLPPSREEMTKNQVSLWCLVKGFYPSDIAVEWESNGQPENNYKTTPPVLDSDGSFFLYSKLTVDKSRWQQGNVFSCSVMHEALHNHYTQKSLSLSPG light: not shown EVKLDETGGGLVQPGRPMKLSCVASGFTFSDYWMNWVRQSPEKGLEWVAQIRNKPYNYETYYSDSVKGRFTISRDDSKSSVYLQMNNLRVEDMGIYYCTGSYYGMDYWGQGTSVTVSSGGGGSGGGGSGGGGSDVVMTQTPLSLPVSLGDQASISCRSSQSLVHSNGNTYLRWYLQKPGQSPKVLIYKVSNRFSGVPDRFSGSGSGTDFTLKISRVEAEDLGVYFCSQSTHVPWTFGGGTKLEIKGGGDKTHTCPPCPAPEAAGAPSVFLFPPKPKDTLMISRTPEVTCVVVDVSHEDPEVKFNWYVDGVEVHNAKTKPREEQYNSTYRVVSVLTVLHQDWLNGKEYKCKVSNKALPAPIEKTISKAKGQPREPQVYTLPPSREEMTKNQVSLSCAVKGFYPSDIAVEWESNGQPENNYKTTPPVLDSDGSFFLVSKLTVDKSRWQQGNVFSCSVMHEALHNHYTQKSLSLSPG			

Source: patent US20260226191A1 (SHANDONG SIMCERE BIOPHARMACEUTICAL, published 2026)
